Substitutions are numbered along the chain they refer to. Blank lines part the entries; values can stand above or below the binder they belong to. Numbered stars: 1 amine (or outer) side, 2 acyl side, 3 side chain; on linkers, the order of the positions; unused ones are H or OH. Bridge positions count the residues as written; N and C are the ends. Side chains are listed from the residue outwards. Ends that are not written are not given here. * marks the point of attachment. C20 diacid = O=C(O)CCCCCCCCCCCCCCCCCCC(=O)*; γGlu = O=C(O)[C@H](CCC(=O)[*:2])N[*:1]; AEEA = NCCOCCOCC(=O)O
What was measured:
[1] = molecular target: T1, human amylin receptor (amylin 3(a) receptor: human calcitonin receptor with RAMP-3) (human, UniProt P30988 25-474; O60896 24-148); assay: SPA displacement of 125I-rat amylin, hAmylin 3(a) receptor membranes
T1 construct: whole, on cells; also called hAmylin-R; hAmylinR
T1 sequence (looked up) 1: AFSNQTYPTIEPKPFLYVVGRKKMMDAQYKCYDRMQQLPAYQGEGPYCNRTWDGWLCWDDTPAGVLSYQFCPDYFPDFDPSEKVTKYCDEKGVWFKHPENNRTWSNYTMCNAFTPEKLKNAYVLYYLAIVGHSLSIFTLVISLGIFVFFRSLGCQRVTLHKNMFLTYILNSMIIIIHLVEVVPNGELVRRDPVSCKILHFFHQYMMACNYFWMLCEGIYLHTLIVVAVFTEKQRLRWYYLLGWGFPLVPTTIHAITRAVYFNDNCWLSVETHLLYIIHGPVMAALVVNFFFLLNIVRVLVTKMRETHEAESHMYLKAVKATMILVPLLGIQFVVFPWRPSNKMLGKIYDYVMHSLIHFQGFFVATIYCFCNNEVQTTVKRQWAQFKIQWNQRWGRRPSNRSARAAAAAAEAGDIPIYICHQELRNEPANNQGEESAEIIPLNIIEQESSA
T1 sequence (looked up) 2: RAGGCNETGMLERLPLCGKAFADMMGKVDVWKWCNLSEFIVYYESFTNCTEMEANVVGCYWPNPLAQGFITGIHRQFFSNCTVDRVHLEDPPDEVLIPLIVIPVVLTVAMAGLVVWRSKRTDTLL
Procedure, shortened: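 One-site competition analysis of SPA counts yielded IC₅₀ as a measure of affinity. Membranes were at 35 ng/μL final; incubation was 120 min at 25° C, pH 7.4.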

[2] = molecular target: T2, human amylin 3(a) receptor (human calcitonin receptor co-expressed with RAMP-3) (human, UniProt P30988 25-474; O60896 24-148, limits assumed); assay: cell-based or functional assay
T2 sequence (looked up) 1: T1 sequence (looked up) 1
T2 sequence (looked up) 2: T1 sequence (looked up) 2

- IC50 [1]: 0.195 nM
B1: N^-1-[(4S)-4-carboxy-4-(19-carboxynonadecanoylamino)butanoyl]-Gly[Arg1,Arg17,Pro21,Pro27]-h-amylin (peptide)
peptide: {C20 diacid-γGlu}-GRCNTATCATQRLANFLRHSSPNFGAIPSSTNVGSNTY-NH2
modifications: disulfide 3-8
SMILES: CC[C@H](C)[C@H](NC(=O)[C@H](C)NC(=O)CNC(=O)[C@H](Cc1ccccc1)NC(=O)[C@H](CC(N)=O)NC(=O)[C@@H]1CCCN1C(=O)[C@H](CO)NC(=O)[C@H](CO)NC(=O)[C@H](Cc1c[nH]cn1)NC(=O)[C@H](CCCNC(=N)N)NC(=O)[C@H](CC(C)C)NC(=O)[C@H](Cc1ccccc1)NC(=O)[C@H](CC(N)=O)NC(=O)[C@H](C)NC(=O)[C@H](CC(C)C)NC(=O)[C@H](CCCNC(=N)N)NC(=O)[C@H](CCC(N)=O)NC(=O)[C@@H](NC(=O)[C@H](C)NC(=O)[C@@H]1CSSC[C@H](NC(=O)[C@H](CCCNC(=N)N)NC(=O)CNC(=O)CC[C@H](NC(=O)CCCCCCCCCCCCCCCCCCC(=O)O)C(=O)O)C(=O)N[C@@H](CC(N)=O)C(=O)N[C@@H]([C@@H](C)O)C(=O)N[C@@H](C)C(=O)N[C@@H]([C@@H](C)O)C(=O)N1)[C@@H](C)O)C(=O)N1CCC[C@H]1C(=O)N[C@@H](CO)C(=O)N[C@@H](CO)C(=O)N[C@H](C(=O)N[C@@H](CC(N)=O)C(=O)N[C@H](C(=O)NCC(=O)N[C@@H](CO)C(=O)N[C@@H](CC(N)=O)C(=O)N[C@H](C(=O)N[C@@H](Cc1ccc(O)cc1)C(N)=O)[C@@H](C)O)C(C)C)[C@@H](C)O
notes: also called 46; compound 46

- IC50 [1]: 0.552 nM
B2: N^ε-[2-[2-[2-[[(4S)-4-carboxy-4-(19-carboxynonadecanoylamino)butanoyl]amino]ethoxy]ethoxy]acetyl]Lys[Arg1,Arg17,Pro21,Pro27,His35]-h-amylin (peptide)
peptide: K([AEEA-γGlu-C20 diacid])RCNTATCATQRLANFLRHSSPNFGAIPSSTNVGSHTY-NH2
modifications: disulfide 3-8; N-terminus assumed
SMILES: CC[C@H](C)[C@H](NC(=O)[C@H](C)NC(=O)CNC(=O)[C@H](Cc1ccccc1)NC(=O)[C@H](CC(N)=O)NC(=O)[C@@H]1CCCN1C(=O)[C@H](CO)NC(=O)[C@H](CO)NC(=O)[C@H](Cc1c[nH]cn1)NC(=O)[C@H](CCCNC(=N)N)NC(=O)[C@H](CC(C)C)NC(=O)[C@H](Cc1ccccc1)NC(=O)[C@H](CC(N)=O)NC(=O)[C@H](C)NC(=O)[C@H](CC(C)C)NC(=O)[C@H](CCCNC(=N)N)NC(=O)[C@H](CCC(N)=O)NC(=O)[C@@H](NC(=O)[C@H](C)NC(=O)[C@@H]1CSSC[C@H](NC(=O)[C@H](CCCNC(=N)N)NC(=O)[C@@H](N)CCCCNC(=O)COCCOCCNC(=O)CC[C@H](NC(=O)CCCCCCCCCCCCCCCCCCC(=O)O)C(=O)O)C(=O)N[C@@H](CC(N)=O)C(=O)N[C@@H]([C@@H](C)O)C(=O)N[C@@H](C)C(=O)N[C@@H]([C@@H](C)O)C(=O)N1)[C@@H](C)O)C(=O)N1CCC[C@H]1C(=O)N[C@@H](CO)C(=O)N[C@@H](CO)C(=O)N[C@H](C(=O)N[C@@H](CC(N)=O)C(=O)N[C@H](C(=O)NCC(=O)N[C@@H](CO)C(=O)N[C@@H](Cc1c[nH]cn1)C(=O)N[C@H](C(=O)N[C@@H](Cc1ccc(O)cc1)C(N)=O)[C@@H](C)O)C(C)C)[C@@H](C)O
notes: also called 45; compound 45

- Ratio hCT/hAmylin funct. (hCTR EC50 over hAmylin-R EC50) [2]: 17.4
- hAmylin-R funct. EC50 (pM) [2]: 307 pM
B3: N^α1-[2-[2-[2-[[2-[2-[2-[[(4S)-4-carboxy-4-(19-carboxynonadecanoylamino)butanoyl]amino]ethoxy]ethoxy]acetyl]amino]ethoxy]ethoxy]acetyl]-[Glu14,Arg17,Pro21,Pro27 … (peptide)
peptide: KCNTATCATQRLAEFLRHSSPNFGAIPSSTNVGSNTY
modifications: alpha-amino group of N-terminal Lys1 acylated with C20 diacid via linker gGlu-2xOEG; disulfide bridge Cys2-Cys7 and C-terminal amide as in human amylin
notes: also called compound 19

- Ratio hCT/hAmylin funct. (hCTR EC50 over hAmylin-R EC50) [2]: 16.4
- hAmylin-R funct. EC50 (pM) [2]: 164 pM
B4: N^α1-[(4S)-4-carboxy-4-(19-carboxynonadecanoylamino)butanoyl]-[Arg17,Pro21,Pro27,His34]-h-amylin (peptide)
peptide: B3 peptide with E14N, S34H
modifications: alpha-amino group of N-terminal Lys1 acylated with C20 diacid via linker gGlu; disulfide bridge Cys2-Cys7 and C-terminal amide as in human amylin
notes: also called compound 40

— patent publication US20140087995A1 (published 2014)
